In paper PMC10928113, “Molecular architecture and platelet-activating properties of small immune complexes assembled on heparin and platelet factor 4” (Communications Biology, 2024):
“And” between values parts separate entries of the source, which are not always exact repeats. Equal values may be shown once.

B1: KKO monoclonal anti-PF4/heparin antibody (antibody, V domains shown)
VH: VQLQQSGAELVKPGASVKLSCKASGYTFTNYFIYWVKQRPGQGLEWIGEINPRNGDTDFNEKFESRATLTVDKSSSTAYMQLSSLTSEDSAIYYCTRSPYGNNYGFTYWGQGTLVTVSA
VL: DIQMIQSQKFMSTSVGDRVTVTCKASQNVGTNVAWYQQKPGQSPNALIYSASYRYSGVPDRFTGSGSGTDFTLTITNVQSEDLADYFCQQYNSYPLTFGTGTKLDLK
notes: Whole IgG (measured 152.5 kDa); also called KKO mAb; KKO hybridoma clone 31.2.57.A7; source: KKO hybridoma clone 31.2.57.A7 (ATCC), supernatant, purified (Protein A Sepharose)
B2: recombinant form of human platelet factor 4 (PF4) (natural protein)
chain: EAEEDGDLQCLCVKTTSQVRPRHITSLEVIKAGPHCPTAQLIATLKNGRKICLDLQAPLYKKIIKKLLES
notes: platelet factor 4 (PF4), human, recombinant; stands as a tetramer in the complexes; also called recombinant PF4; PF4 tetramer

What was measured:
[1] = biological target: T1, recombinant form of human platelet factor 4 (PF4) (human, UniProt P02776); assay: native MS; PF4·dp20 complexes incubated with a nearly equimolar amount of KKO (0.28 mg/mL and 0.06 mg/mL); 150 mM ammonium acetate, pH 6.9; details: both partners purified
T1 construct: platelet factor 4 (PF4), human, recombinant; stands as a tetramer in the complexes; also called recombinant PF4; PF4 tetramer

[2] = biological target: T1, recombinant form of human platelet …; assay: native MS; highest-MW SEC sub-fraction of PF4/UFH small complexes incubated with a nearly equimolar amount of KKO (antibody excess up to 33% also tested); 150 mM ammonium acetate, pH 6.9; limited charge reduction; details: both partners purified
[3] = biological target: the molecule itself; assay: native MS; PF4 incubated with UFH, SEC sub-fractions of the small complexes; 150 mM ammonium acetate, pH 6.9; masses by limited charge reduction

Binder	stoichiometry N [1]	stoichiometry N [2]	stoichiometry N [3]
B1	1 PF4 tetramer per KKO and 2 PF4 tetramers per KKO	1 KKO per complex of one heparin chain and two PF4 tetramers and 2 KKO per complex of one heparin chain and three PF4 tetramers	
B2			4 subunits (tetramer)
